Measurements as given in patent US20250353924A1 (CITY OF HOPE, published 2025).

T1: human CD84 on the cell surface (human, UniProt Q9UIB8 22-345)
T1 construct: whole, on cells; also called Cluster of Differentiation 84
T1 sequence (looked up): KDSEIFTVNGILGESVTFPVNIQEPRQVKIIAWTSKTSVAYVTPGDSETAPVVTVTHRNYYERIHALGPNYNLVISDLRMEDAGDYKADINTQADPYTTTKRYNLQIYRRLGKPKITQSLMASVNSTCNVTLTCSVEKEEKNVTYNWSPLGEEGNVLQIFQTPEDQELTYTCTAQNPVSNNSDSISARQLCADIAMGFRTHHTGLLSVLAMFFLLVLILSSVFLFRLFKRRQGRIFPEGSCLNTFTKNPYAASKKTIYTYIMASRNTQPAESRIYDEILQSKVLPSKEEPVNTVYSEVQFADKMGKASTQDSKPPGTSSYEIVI


What was measured:
[1] = biological target: T1, human CD84 on the cell surface; assay: flow cytometry, control on NS0 cells expressing human CD84
[2] = biological target: T1, human CD84 on the cell surface; assay: flow cytometry, hybridoma supernatant on NS0 cells expressing human CD84
Experimental: Hybridoma clones selected from ELISA screening were subjected to flow cytometric analyses with NSO, a mouse myeloma cell line (ECACC), expressing human CD84 via lentiviral transduction. Half a million of transduced cells were incubated with 100 mL of hybridoma culture supernatants on ice for 30 min and washed with cold PBS containing 1% fetal bovine serum and 0.1% sodium azide.

Geometric Mean [1] | Geometric Mean [2] | Molecule
– | 1810 | anti-CD84 hybridoma clone 8A5 (antibody, V domains shown) VH: QIQLVQSGPELKKPGETVKISCKASGYTFTTYSMHWVKQAPGKGLKWMGWIDTATGEPTYADDFKGRFAFSLETSASTAYLQINNLNNDDTATYFCVKSAYWYFDVWGAGTTVTVSS VL: DVLMTQTPLSLPVSLGDQASISCRSSQSIVHINGNTYLEWYLQKPGQSPKLLIYKVSNRFSGVPDRFSGSGSGTDFTLKISRVEAEDLGVYYCFQGSHVPWTFGGGTKLEIK
– | 2120 | anti-CD84 hybridoma clone 13D11 (antibody, V domains shown) VH: QVTLKESGPGLLQPSQTLSLTCSFSGFSLNTSNMGVGWIRQPSGKDLEWLAHIWWDDVKRYNPALKSRLTISKDTSNNQVFLKIASVDTADTATYYCARMRGDYTMDYWGQGTSVTVSS VL: DIVLTQSPASLAVSLGQRATLSCRASQSVSTSLYSYMHWYQQKPGQPPKLLIKYASDLESGVPARFSGSGSGTDFTLHIHPVEEEDTATYYCQHSWEIPYTFGGGTKLEIK

Second part, the molecule before the results:

Molecule | Geometric Mean [1] | Geometric Mean [2]
Ctrl | 88 | –
anti-CD84 hybridoma clone 5C6 (antibody, V domains shown) VH: QVHLQQSGAELVRPGTSVKISCKASGYTFTNYWLGWVKQRPGHGLEWIGDIFPGGGYINYHEKFKGKATLTADTSSSTAYMQLSSLTSEDSAVYFCGYGNIAMDYWGQGTSVTVSS VL: QIILTQTPAIMSASPGEKVTMTCSASSSVSYVHWYQQKSGTSPKRWIYDTSKLASGVPARFSGSGSGTSYSLTISTMEAEDAATYYCQQWNNSPRTFGGGTKLEIK | – | 1690
anti-CD84 hybridoma clone 7D2 (antibody, V domains shown) VH: QVHLQQSGAELVRPGTSVKISCKASGYTFTNYWLGWVKQRPGHGLEWIGDIFPGGGYINYHEKFKGKATLTADTSSSTAYMQLSSLTSEDSAVYFCAYGNVAMDYWGQGTSVTVSS VL: QIILTQTPAIMSASPGEKVTVTCSASSSVSYVHWYQQKSGTSPKRWIYDTSKLASGVPARFSGSGSGTSYSLTISTMEAEDAATYYCQQWNNSPRTFGGGTKLEIK | – | 2260
anti-CD84 hybridoma clone 4B11 (antibody, V domains shown) VH: EVKLVESGGGLVQPGGSLRLSCATSGFTFSDFYMDWVRQPPGKRLEWIATSRNKANDYTTEYSASVRGRFIVSRDTSQSILYLQMNALRAEDTAIYYCARDAVWEPFAYWGQGTLVTVSA VL: EIVLTQSPTTMAASPGEKITVTCSANSSISSNSLHWYQQKPGFSPKLLIYRTSNLASGVPARFSGSGSGTSYFLTIGTMEAEDVATYYCQQGTSIPRTFGGGTKLEIK | – | 1100
anti-CD84 hybridoma clone 2H7 (antibody, V domains shown) VH: DVQLQESGPGLVKPSQSLSLTCTVTGYSITSDYAWNWIRQFPGNKLEWMGYISYSGTTSYNPSLKSRISITRDTSKNQFFLQLNSVTTEDTATYYCASLHYYGSRYKKLYAMDYWGQGTLATVSS VL: NIVMTQSPKSMSMSVGERVTLSCKASDNVGTYVSWYQQKPEQSPKLLIYGASNRYTGVPDRFTGSGSATDFTLTISSVQAEDLADYHCGQSYSYPTFGGGTKLEIK | – | 1550
